Laboratory results reported in patent publication US8217140B2, “Peptides capable of binding to serum proteins and compounds, constructs and polypeptides comprising the same” (Ablynx N.V., priority 2008, dated 2012).
Like-named read-outs stand apart in the source and are kept apart here.

What was measured:
human serum albumin [1] = molecular target: T1, human serum albumin (Homo sapiens, UniProt P02768); assay: Co-crystal structure and in silico modelling of peptide with human serum albumin; details: crystal structure and modeling data
Description: The crystal structure was determined as follows: the purified proteins were used in crystallization trials employing both, a standard screen of approximately 1200 different conditions, as well as crystallization conditions identified using literature data. Conditions initially obtained have been optimized using standard strategies, systematically varying parameters critically influencing crystallization, such as temperature, protein concentration, drop ratio, etc. These conditions were also refined by systematically varying pH or precipitant concentrations. Crystals were obtained via the method of co-crystallization.
Crystals have been flash-frozen and measured at a temperature of 100K. The X-ray diffraction have been collected at the SWISS LIGHT SOURCE (SLS, Villigen, Switzerland) using cryogenic conditions. Data were processed using the programs XDS and XSCALE. The phase information necessary to determine and analyze the structure was obtained by molecular replacement. Subsequent model building and refinement was performed with the software packages CCP4 and COOT. The peptide parameterization was carried out with the program […].
Modeling of the interaction was performed using ICM-Pro (Molsoft) and Discovery Studio (Accelrys) with a force-field that is based on the parameters as described in Momany et al. (Momany et al. J. Phys. Chem. 1975, 79, 2361-2381)

human serum albumin [2] = molecular target: T1, human serum albumin; assay: Phage ELISA on HSA-coated plates; assay type: binding; details: phage clones; near-infrared fluorescence intensity vs phage dilution, FIG. 2
Description: 5-fold serial dilutions of phage clones (starting from ˜5×10^11 phage) were added to 96-well Nunc Maxisorp plates coated with human serum albumin (2 μg/ml in PBS, overnight at 4° C.; plates were blocked with Superblock T20 (Pierce) for 1 h at room temperature). The microtiter plate was washed with wash buffer (PBS, 0.05% Tween 20) and bound phages were detected with anti-M13 and goat-anti mouse IRDye conjugate (610-130-121, Rockland). The amount of IRDye bound was measured on Odyssey (LI-COR Biosciences). The dilution of phage was plotted against measured near-infrared fluorescence intensity (FIG. 2).

human serum albumin [3] = molecular target: T1, human serum albumin; assay: Surface plasmon resonance (BIAcore 3000) of 2D3 fusion proteins, Example 6; assay type: binding
Description: (§1) The binding of the resulting 2D3-17D12 and 2D3-56H5 fusion proteins to human serum albumin was determined using surface plasmon resonance analysis. For this purpose, the fusion proteins were expressed in E. coli TG1 cells. The fusion proteins were purified by IMAC/SEC and binding to HSA was assessed in BIAcore™ 3000, by injecting 1 μM and 5 μM of the 2D3-17D12 and 2D3-56H5 fusion proteins on a CM5 chip coated with ˜7000 RU human serum albumin (Sigma, 99% pure) and 2460 RU an irrelevant protein antigen (reference). Coating of the chip (CM5) was performed by amine coupling using NHS/EDC for activation and ethanolamine for deactivation (Biacore amine coupling kit). HBS-EP was used as flow buffer at a rate of […]. 20 μl of sample was injected for 120 s. The 2D3 Nanobody was injected as control.

[4] = system: irrelevant protein antigen; assay: Surface plasmon resonance control on chip coated with irrelevant protein, Example 6; assay type: binding; details: 5 μM injected; CM5 chip coated with irrelevant protein (2400RU)
Description: as §1

[5] = molecular target: Cynomolgus monkey serum albumin (Macaca fascicularis, UniProt A2V9Z4); assay: Surface plasmon resonance (BIAcore 3000) of 2D3-9GS-56E4 and 2D3-9GS-59C2, Example 11; assay type: binding; details: for ka: untagged constructs
Description: (§2) The binding was determined in BIAcore™ 3000, by injecting concentration series of the fusion proteins ranging from 2 μM to 200 nM on a CM5 chip coated with ˜3000 RU HSA or CSA. Coating of the chip (CM5) was performed by amine coupling using NHS/EDC for activation and ethanolamine for deactivation (Biacore amine coupling kit). HBS-EP was used as flow buffer at a rate of 45 μl min-1. 90 μl of sample was injected for 120 s.

human serum albumin [6] = molecular target: T1, human serum albumin; assay: as above; assay type: binding
Description: as §2

[7] = Pharmacokinetic profile in male cynomolgus monkeys: monovalent Nanobody 2D3 constructs; assay type: in vivo, Cynomolgus monkey; details: for exposure higher and total body clearance (CL) lower than after 2D3: on average, relative to control article 2D3; for AUCinf / C0: serum
Description: The pharmacokinetic profile of this 2D3-9GS-EXP56E4 Nanobody construct (“construct” or “test item” hereafter) was analysed in male cynomolgus monkeys of approximately 3 to 4 years old and was compared to the 2D3 control (“control” or “negative control” hereafter). The construct and the control were each injected in three monkeys. Both the construct and the control were administered at a dose of 2 mg/kg via intravenous infusion. Blood samples were taken at predose, 5 min, 20 min, 1 h, 2 h, 4 h, 8 h, and 16 h after administration and at test days 2, 3, 5, 7, 9, 12, 15, 18, 21, 24, 27, 30, 33, 36, 39, 42, 45, 48, 51, 54, and 57 after the start of the infusion. In order to obtain at least 0.25 mL serum per animal per sampling time, a sufficient volume of whole blood was withdrawn per sampling time and the serum was isolated after 1 h of incubation at 37° C. The serum samples were stored at −80° C.
Serum samples were tested for serum levels of construct and the control, respectively, using the following ELISA assay.
96-well microtiter plates (Maxisorp, Nunc, Wiesbaden, Germany) were coated for 1 hour at 37° C. with Recombinant Human ErbB2/Fc Chimera, C F (R&D Systems, Minneapolis) in PBS at 3 μg/mL for the negative control and 4.5 μg/mL for the test item. Wells were aspirated and blocked for 30 minutes at room temperature (RT) with SuperBlock®T20 PBS (Pierce, Rockford, Ill.). After this blocking step, wells were washed with PBS-0.05% Tween20.
Preparations for the standards, QC samples and dilutions of the test samples were performed in a non-coated (polypropylene) plate.
Standard curve and QC-samples: Solutions at the required concentrations were prepared in PBS 0.1% casein and spiked into 100% monkey serum. To prepare standards and QC samples, a 1/10 dilution of the pure monkey serum dilutions was made in PBS-0.1% casein.
Test samples: Dilution factors for the test samples were estimated, and varied from 1/10 to 1/500. Samples were diluted 1/10 in PBS 0.1% casein in a first step, and if needed, further dilution was done in PBS 0.1% casein containing 10% monkey serum. These sample dilutions were further serially diluted 1/5 in PBS 0.1% casein with 10% monkey serum over 2 wells.
Standards, QC samples and the 1/5 dilutions of the test samples were transferred onto the coated plate and incubated for 1 hour at RT. Afterwards the plates were washed and rabbit polyclonal anti-VHH K1, purified against protein A and Her2/Fc depleted, was added at 1 μg/mL in PBS 0.1% casein, and incubated for 1 hour at RT. After washing a 1/2000 dilution in PBS 0.1% casein of horse radish peroxidase labelled goat anti-rabbit (Dakocytomation, Denmark) was added to the plate and incubated for 30 minutes at RT. This enzyme catalyzes a chemical reaction with the substrate sTMB (3,3′,5,5′-tetramethylbenzidine, SDT reagents, Brussels, Belgium), which results in a colorimetric change. After stopping this reaction after 15 minutes using HCl (1N), the intensity of the colour was measured by a spectrophotometer, which determines the optical density of the reaction product, using a 450 nm wavelength of light.
The concentration of the construct and the control in the serum samples was determined towards a standard curve of the construct and the control, respectively. The concentration determination was performed using the sigmoidal dose-response curve with variable slope. All serum samples were tested minimally in duplicate. Average values were reported. For each sample standard deviations and precision between the different results was calculated.
For blood sampling and processing, the pharmacokinetic profile of the constructs (2D3-9GS-EXP56E4 and 2D3-9GS-EXP59C2) and the negative control 2D3 were determined in male Cynomolgus monkeys of approximately 3 to 4 years old and was compared to that of the control (2D3). The constructs and the control were administered to three monkeys at a dose of 2 mg/kg by intravenous bolus injection. […]

[8] = i.v. bolus 2 mg/kg, male Cynomolgus monkey, mean n = 3

Cynomolgus monkey serum albumin, sequence (A2V9Z4 25-608): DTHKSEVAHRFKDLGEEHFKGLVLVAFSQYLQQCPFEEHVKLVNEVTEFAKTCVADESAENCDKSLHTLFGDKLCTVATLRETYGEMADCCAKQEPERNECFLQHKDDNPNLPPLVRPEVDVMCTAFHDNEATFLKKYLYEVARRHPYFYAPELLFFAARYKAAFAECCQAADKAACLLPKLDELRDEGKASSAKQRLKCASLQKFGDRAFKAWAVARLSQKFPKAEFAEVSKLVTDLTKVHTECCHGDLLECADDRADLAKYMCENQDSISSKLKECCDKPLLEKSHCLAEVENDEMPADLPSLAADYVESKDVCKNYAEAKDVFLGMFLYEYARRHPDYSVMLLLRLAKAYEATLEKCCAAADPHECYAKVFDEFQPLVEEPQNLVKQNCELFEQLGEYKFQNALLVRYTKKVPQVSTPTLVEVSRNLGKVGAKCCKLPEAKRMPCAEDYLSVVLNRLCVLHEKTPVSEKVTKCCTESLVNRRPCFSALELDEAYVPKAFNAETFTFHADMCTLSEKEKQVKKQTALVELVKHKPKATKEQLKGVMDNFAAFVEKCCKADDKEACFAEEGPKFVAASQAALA

| Molecule | binding to HSA compared to the amino acid sequence of SEQ ID NO: 1 (human serum albumin [2]) | koff (dissociation rate constant) [5] [s⁻¹] | ka [5] | Vdss [7, 8] [L/kg] | exposure higher and total body clearance (CL) lower than after 2D3 [7] [fold] | mean Vdss lower compared to 2D3 ([7]; relative to 2D3) [fold] | AUCinf [7, 8] [µg·h/mL] | C0 [7, 8] [µg/mL] | other results |
| --- | --- | --- | --- | --- | --- | --- | --- | --- | --- |
| AAARYWDYDVFGGGTPVGGAAA [peptide of SEQ ID NO: 143, based on EXP56E4 with an additional N-terminal alanine and three C-terminal alanine residues] | – | – | – | – | – | – | – | – | binding site on human serum albumin (human serum albumin [1]): binds in a deep subpocket of domain I of human serum albumin |
| AAPYRDYDVFGGGTPRGE [56 F2] | stronger binding | – | – | – | – | – | – | – | – |
| AAYYYDYDVFGGGTPGGE [56 E2] | stronger binding | – | – | – | – | – | – | – | – |
| 2D3-56H5: SEQ ID NO: 139, fusion of Nanobody 2D3 and peptide 56H5 with Myc-His tag (protein, Myc-His tag; fusion protein) EVQLVESGGSLVQPGGSLRLSCAASGFTFDDYAMSWVRQVPGKGLEWVSSINWSGTHTDYADSVKGRFTISRNNANNTLYLQMNSLKSEDTAVYYCAKNWRDAGTTWFEKSGSAGQGTQVTVSSGGGGSGGGSAAAFYDDYDVFGGGTPAGGAAAEQKLISEEDLNGAAHHHHHH | – | – | – | – | – | – | – | – | binding to HSA (surface plasmon resonance, FIG. 5) (human serum albumin [3]; 1 μM and 5 μM injected, comparison with 2D3-17D12 fusion protein): improved binding; ka (human serum albumin [3]; CM5 chip ~7000 RU HSA): 7570 M⁻¹ s⁻¹; kd (human serum albumin [3]; CM5 chip ~7000 RU HSA): 0.0093 s⁻¹; specific binding to irrelevant protein [4]: no specific binding was detected |
| 2D3-9GS-EXP56E4: SEQ ID NO: 142, fusion of peptide 56E4 and Nanobody 2D3 via 9GS linker (protein) EVQLVESGGSLVQPGGSLRLSCAASGFTFDDYAMSWVRQVPGKGLEWVSSINWSGTHTDYADSVKGRFTISRNNANNTLYLQMNSLKSEDTAVYYCAKNWRDAGTTWFEKSGSAGQGTQVTVSSGGGGSGGGSRYWDYDVFGGGTPVGG | – | 0.00847 | 1.71E+04 1/ms | 0.0503 | 23 | 2.3 | 458 | 66.8 | Kd (human serum albumin [6]; dissociation rate): 0.00497 s⁻¹; Kd (human serum albumin [6]; read-out: KD): 342 nM; ka (human serum albumin [6]; untagged constructs): 1.04E+04 1/ms; Terminal Half-life ([7]; cynomolgus monkeys, 2 mg/kg intravenous infusion, Table IV): 8.54 ± 0.79 h; t½ (terminal half-life) ([7]; i.v. bolus 2 mg/kg, male Cynomolgus monkey, mean n = 3, 2 mg/kg): 8.54 h; terminal half-life (t½) increase relative to 2D3 ([7]; relative to 2D3): 4.2 fold |
| 2D3-9GS-59C2: SEQ ID NO: 164, 59C2 without the two N-terminal alanines fused via 9GS linker to C-terminus of 2D3 (protein) EVQLVESGGSLVQPGGSLRLSCAASGFTFDDYAMSWVRQVPGKGLEWVSSINWSGTHTDYADSVKGRFTISRNNANNTLYLQMNSLKSEDTAVYYCAKNWRDAGTTWFEKSGSAGQGTQVTVSSGGGGSGGGSRDWDFDVFGGGTPVGG | – | 0.00247 | 8.98E+03 1/ms | 0.0455 | 77 | 2.6 | 1540 | 62.5 | – |
